# Results reported in patent US20240376151A1, “STAPLED PEPTIDES AND METHODS THEREOF” (FOG PHARMACEUTICALS, INC., priority 2022, published 2024).
# Ends that are not written are not given here.
# Columns and labels:
# Assay type in all cases: binding
# [1] = biological target: T1, CUL4B (Homo sapiens, UniProt Q13620, L520D/V516R); assay: Naive Library Presenter Screening (phage, NGS), CUL4B; details: for interaction data at Target Concentration 10: CUL4B target concentration 10 nM; for interaction data at Target Concentration 30: CUL4B target concentration 30 nM; for interaction data at Target Concentration 100: CUL4B target concentration 100 nM; for interaction data at Target Concentration 300: CUL4B target concentration 300 nM; for interaction data at Target Concentration 1000: CUL4B target concentration 1000 nM
# T1 construct: GST-TEV (N, cleaved yes); made in house; host or cells: E. coli BL21 CodonPlus
# T1 sequence (Q13620 206-557 V516R/L520D): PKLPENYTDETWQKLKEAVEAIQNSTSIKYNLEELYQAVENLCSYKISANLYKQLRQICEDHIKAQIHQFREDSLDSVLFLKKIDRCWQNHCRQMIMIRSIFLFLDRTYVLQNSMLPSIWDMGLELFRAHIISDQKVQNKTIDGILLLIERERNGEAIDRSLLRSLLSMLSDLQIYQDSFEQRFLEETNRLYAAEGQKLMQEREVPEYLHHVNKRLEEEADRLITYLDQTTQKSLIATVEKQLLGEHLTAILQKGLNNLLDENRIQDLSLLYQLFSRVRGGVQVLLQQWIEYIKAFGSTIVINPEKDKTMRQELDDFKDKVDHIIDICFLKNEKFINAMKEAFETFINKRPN
# [2] = biological target: T2, CUL1 (Homo sapiens, UniProt Q13616, L371D/V367R); assay: Naive Library Presenter Screening (phage, NGS), CUL1; details: for interaction data at Target Concentration 10: CUL1 target concentration 10 nM; for interaction data at Target Concentration 30: CUL1 target concentration 30 nM; for interaction data at Target Concentration 100: CUL1 target concentration 100 nM; for interaction data at Target Concentration 300: CUL1 target concentration 300 nM; for interaction data at Target Concentration 1000: CUL1 target concentration 1000 nM
# T2 construct: CUL1 (Uniprot ID: Q13616, residue 15-410, V367R/L371D); GST-TEV (N, cleaved yes); made in house; host or cells: E. coli BL21 CodonPlus
# T2 sequence (Q13616 15-410 V367R/L371D): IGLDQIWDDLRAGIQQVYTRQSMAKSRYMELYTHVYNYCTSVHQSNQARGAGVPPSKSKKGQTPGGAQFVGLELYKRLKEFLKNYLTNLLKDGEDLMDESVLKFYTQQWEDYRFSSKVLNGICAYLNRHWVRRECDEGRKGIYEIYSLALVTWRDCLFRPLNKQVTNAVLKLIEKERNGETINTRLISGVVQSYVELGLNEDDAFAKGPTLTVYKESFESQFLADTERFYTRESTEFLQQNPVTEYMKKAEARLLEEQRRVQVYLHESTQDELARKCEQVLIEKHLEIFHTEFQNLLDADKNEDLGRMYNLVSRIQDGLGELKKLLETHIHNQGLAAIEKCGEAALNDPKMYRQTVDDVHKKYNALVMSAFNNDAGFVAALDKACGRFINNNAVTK
# [3] = biological target: T3, CUL5 (Homo sapiens, UniProt Q93034, L345D/V341R); assay: Naive Library Presenter Screening (phage, NGS), CUL5; details: for interaction data at Target Concentration 10: CUL5 target concentration 10 nM; for interaction data at Target Concentration 30: CUL5 target concentration 30 nM; for interaction data at Target Concentration 100: CUL5 target concentration 100 nM; for interaction data at Target Concentration 300: CUL5 target concentration 300 nM; for interaction data at Target Concentration 1000: CUL5 target concentration 1000 nM
# T3 construct: GST-TEV (N, cleaved yes); made in house; host or cells: E. coli BL21 CodonPlus
# T3 sequence (Q93034 1-386 V341R/L345D): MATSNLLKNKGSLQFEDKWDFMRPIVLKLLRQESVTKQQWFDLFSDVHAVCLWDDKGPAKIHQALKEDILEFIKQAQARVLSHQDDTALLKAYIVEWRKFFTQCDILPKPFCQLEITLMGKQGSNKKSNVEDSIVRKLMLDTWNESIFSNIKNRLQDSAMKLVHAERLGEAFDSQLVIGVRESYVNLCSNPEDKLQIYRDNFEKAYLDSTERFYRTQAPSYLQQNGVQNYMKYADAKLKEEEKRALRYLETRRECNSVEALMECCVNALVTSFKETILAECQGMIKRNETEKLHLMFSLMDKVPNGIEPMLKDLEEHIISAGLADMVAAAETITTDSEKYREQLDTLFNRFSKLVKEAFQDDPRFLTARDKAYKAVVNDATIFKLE
sequence,measurement,setting,value
DPADRLCELAAWVCQSF,interaction data at Target Concentration 10,[1],0
same,interaction data at Target Concentration 30,[1],0
same,interaction data at Target Concentration 100,[1],0
same,interaction data at Target Concentration 300,[1],48
same,interaction data at Target Concentration 1000,[1]; first column,9
same,interaction data at Target Concentration 1000,[1]; second column,0
DPADRQCIFAAWMCEAF,interaction data at Target Concentration 10,[1],0
same,interaction data at Target Concentration 30,[1],0
same,interaction data at Target Concentration 100,[1],3
same,interaction data at Target Concentration 300,[1],9
same,interaction data at Target Concentration 1000,[1]; first column,34
same,interaction data at Target Concentration 1000,[1]; second column,0
DPADRQCLFAAWYCEHT,interaction data at Target Concentration 10,[1],0
same,interaction data at Target Concentration 30,[1],10
same,interaction data at Target Concentration 100,[1],0
same,interaction data at Target Concentration 300,[1],6
same,interaction data at Target Concentration 1000,[1]; first column,11
same,interaction data at Target Concentration 1000,[1]; second column,2
DPADRWCELAAWICDEF,interaction data at Target Concentration 10,[1],0
same,interaction data at Target Concentration 30,[1],0
same,interaction data at Target Concentration 100,[1],0
same,interaction data at Target Concentration 300,[1],6
same,interaction data at Target Concentration 1000,[1]; first column,17
same,interaction data at Target Concentration 1000,[1]; second column,0
DPADRYCDMAAWVCERF,interaction data at Target Concentration 10,[1],1
same,interaction data at Target Concentration 30,[1],1
same,interaction data at Target Concentration 100,[1],15
same,interaction data at Target Concentration 300,[1],248
same,interaction data at Target Concentration 1000,[1]; first column,340
same,interaction data at Target Concentration 1000,[1]; second column,0
DPAEAACDIAALMCIID,interaction data at Target Concentration 10,[2],15
same,interaction data at Target Concentration 30,[2],13
same,interaction data at Target Concentration 100,[2],65
same,interaction data at Target Concentration 300,[2],211
same,interaction data at Target Concentration 1000,[2]; first column,203
same,interaction data at Target Concentration 1000,[2]; second column,195
DPAEFVCDWAALACLVD,interaction data at Target Concentration 10,[2],4
same,interaction data at Target Concentration 30,[2],32
same,interaction data at Target Concentration 100,[2],183
same,interaction data at Target Concentration 300,[2],247
same,interaction data at Target Concentration 1000,[2]; first column,517
same,interaction data at Target Concentration 1000,[2]; second column,300
DPAEMQCDYAAILCIVR,interaction data at Target Concentration 10,[2],0
same,interaction data at Target Concentration 30,[2],0
same,interaction data at Target Concentration 100,[2],32
same,interaction data at Target Concentration 300,[2],95
same,interaction data at Target Concentration 1000,[2]; first column,114
same,interaction data at Target Concentration 1000,[2]; second column,71
DPAEQECDHAALWCIVA,interaction data at Target Concentration 10,[2],14
same,interaction data at Target Concentration 30,[2],19
same,interaction data at Target Concentration 100,[2],340
same,interaction data at Target Concentration 300,[2],937
same,interaction data at Target Concentration 1000,[2]; first column,1137
same,interaction data at Target Concentration 1000,[2]; second column,743
DPAEQMCDIAAVWCLAH,interaction data at Target Concentration 10,[2],0
same,interaction data at Target Concentration 30,[2],0
same,interaction data at Target Concentration 100,[2],35
same,interaction data at Target Concentration 300,[2],135
same,interaction data at Target Concentration 1000,[2]; first column,151
same,interaction data at Target Concentration 1000,[2]; second column,88
DPAERHCQLAAWVCHQF,interaction data at Target Concentration 10,[1],0
same,interaction data at Target Concentration 30,[1],0
same,interaction data at Target Concentration 100,[1],0
same,interaction data at Target Concentration 300,[1],99
same,interaction data at Target Concentration 1000,[1]; first column,29
same,interaction data at Target Concentration 1000,[1]; second column,0
DPAEVHCDMAALYCIIR,interaction data at Target Concentration 10,[2],3
same,interaction data at Target Concentration 30,[2],7
same,interaction data at Target Concentration 100,[2],65
same,interaction data at Target Concentration 300,[2],242
same,interaction data at Target Concentration 1000,[2]; first column,366
same,interaction data at Target Concentration 1000,[2]; second column,119
DPAIIQCDQAALWCVVT,interaction data at Target Concentration 10,[2],0
same,interaction data at Target Concentration 30,[2],0
same,interaction data at Target Concentration 100,[2],28
same,interaction data at Target Concentration 300,[2],83
same,interaction data at Target Concentration 1000,[2]; first column,80
same,interaction data at Target Concentration 1000,[2]; second column,61
DPAMLQCDMAALWCMVS,interaction data at Target Concentration 10,[2],1
same,interaction data at Target Concentration 30,[2],3
same,interaction data at Target Concentration 100,[2],77
same,interaction data at Target Concentration 300,[2],64
same,interaction data at Target Concentration 1000,[2]; first column,143
same,interaction data at Target Concentration 1000,[2]; second column,126
DPAMNHCVLAAWVCDTF,interaction data at Target Concentration 10,[1],0
same,interaction data at Target Concentration 30,[1],0
same,interaction data at Target Concentration 100,[1],6
same,interaction data at Target Concentration 300,[1],37
same,interaction data at Target Concentration 1000,[1]; first column,9
same,interaction data at Target Concentration 1000,[1]; second column,0
DPAQRACQFAAWICERF,interaction data at Target Concentration 10,[1],1
same,interaction data at Target Concentration 30,[1],0
same,interaction data at Target Concentration 100,[1],13
same,interaction data at Target Concentration 300,[1],56
same,interaction data at Target Concentration 1000,[1]; first column,73
same,interaction data at Target Concentration 1000,[1]; second column,0
DPASRLCELAAWVCDSF,interaction data at Target Concentration 10,[1],4
same,interaction data at Target Concentration 30,[1],15
same,interaction data at Target Concentration 100,[1],139
same,interaction data at Target Concentration 300,[1],319
same,interaction data at Target Concentration 1000,[1]; first column,251
same,interaction data at Target Concentration 1000,[1]; second column,0
DPASRMCEMAAWFCENY,interaction data at Target Concentration 10,[1],0
same,interaction data at Target Concentration 30,[1],3
same,interaction data at Target Concentration 100,[1],11
same,interaction data at Target Concentration 300,[1],13
same,interaction data at Target Concentration 1000,[1]; first column,78
same,interaction data at Target Concentration 1000,[1]; second column,0
DPATRHCIFAAWACDRF,interaction data at Target Concentration 10,[1],0
same,interaction data at Target Concentration 30,[1],0
same,interaction data at Target Concentration 100,[1],47
same,interaction data at Target Concentration 300,[1],20
same,interaction data at Target Concentration 1000,[1]; first column,12
same,interaction data at Target Concentration 1000,[1]; second column,0
DPATRMCELAAWTCEVW,interaction data at Target Concentration 10,[1],0
same,interaction data at Target Concentration 30,[1],0
same,interaction data at Target Concentration 100,[1],1
same,interaction data at Target Concentration 300,[1],31
same,interaction data at Target Concentration 1000,[1]; first column,9
same,interaction data at Target Concentration 1000,[1]; second column,0
DPATTECILAAWICDRF,interaction data at Target Concentration 10,[1],0
same,interaction data at Target Concentration 30,[1],0
same,interaction data at Target Concentration 100,[1],15
same,interaction data at Target Concentration 300,[1],31
same,interaction data at Target Concentration 1000,[1]; first column,18
same,interaction data at Target Concentration 1000,[1]; second column,0
DPAWMTCATAAWECYLA,interaction data at Target Concentration 10,[3],6
same,interaction data at Target Concentration 30,[3],6
same,interaction data at Target Concentration 100,[3],62
same,interaction data at Target Concentration 300,[3],48
same,interaction data at Target Concentration 1000,[3]; first column,55
same,interaction data at Target Concentration 1000,[3]; second column,0
"DPAWQWCAEAAWQCITH (not fully specified (C-terminus, bridges); cysteine pairing not given here)",interaction data at Target Concentration 10,[3],14
same,interaction data at Target Concentration 30,[3],59
same,interaction data at Target Concentration 100,[3],284
same,interaction data at Target Concentration 300,[3],284
same,interaction data at Target Concentration 1000,[3]; first column,265
same,interaction data at Target Concentration 1000,[3]; second column,0
DPAWRACAQAAWDCIIA,interaction data at Target Concentration 10,[3],1
same,interaction data at Target Concentration 30,[3],167
same,interaction data at Target Concentration 100,[3],267
same,interaction data at Target Concentration 300,[3],385
same,interaction data at Target Concentration 1000,[3]; first column,368
same,interaction data at Target Concentration 1000,[3]; second column,0
DPAWRECAHAAWQCYIQ,interaction data at Target Concentration 10,[3],0
same,interaction data at Target Concentration 30,[3],50
same,interaction data at Target Concentration 100,[3],47
same,interaction data at Target Concentration 300,[3],21
same,interaction data at Target Concentration 1000,[3]; first column,93
same,interaction data at Target Concentration 1000,[3]; second column,0
DPAWWECAEAAWQCQVL,interaction data at Target Concentration 10,[3],0
same,interaction data at Target Concentration 30,[3],6
same,interaction data at Target Concentration 100,[3],44
same,interaction data at Target Concentration 300,[3],20
same,interaction data at Target Concentration 1000,[3]; first column,59
same,interaction data at Target Concentration 1000,[3]; second column,0
DPAWYECASAAWVCYSM,interaction data at Target Concentration 10,[3],0
same,interaction data at Target Concentration 30,[3],13
same,interaction data at Target Concentration 100,[3],94
same,interaction data at Target Concentration 300,[3],60
same,interaction data at Target Concentration 1000,[3]; first column,171
same,interaction data at Target Concentration 1000,[3]; second column,0
DPAYYVCAEAAWNCLFE,interaction data at Target Concentration 10,[3],4
same,interaction data at Target Concentration 30,[3],46
same,interaction data at Target Concentration 100,[3],104
same,interaction data at Target Concentration 300,[3],100
same,interaction data at Target Concentration 1000,[3]; first column,76
same,interaction data at Target Concentration 1000,[3]; second column,0
